Data reported in patent US20180030119A1.

Key:
Assay in all cases: cell-based or functional assay
[1] = biological target: 26 RSV/B isolates (F protein on virus)
[2] = substrate: F protein of palivizumab-resistant clinical RSV isolate #20, on virus (RSV clinical isolate #20), P11209
[3] = biological target: 42 RSV/A isolates (F protein on virus)

B1: AR201 (antibody, V domains shown)
VH: LVQLRESGPGLVKPSQTLSLTCSVSGASINLYDYFWGWIRQAPGRGPEWIGYISGSTYYNPSLKRRATISVDTSKSQFFLELTSVTAADTAVYYCARDVGWGPQYYYGLDVWGQGTTVTVSS
VL: DLVLTQSPGTLSLSPGERATLSCRASHSVQSTSLAWYQQKRGQAPRLLIYGGSSRVTGIPDRFSGSGSGTDFTLTISRLEPEDFAVYYCQQSDRSPPITFGQGTRLEMK
Binder B1 has a Log10 PFU/0.2 mL after 20 ug/ml antibody, plaque reduction assay on HEp-2 cells, mean (Log10 PFU/0.2 mL) [1] of -0.52, a Log10 PFU/0.2 mL after 20 ug/ml antibody, plaque reduction assay on HEp-2 cells, median (Log10 PFU/0.2 mL) [1] of -0.6 and an IC50 of neutralisation, infectivity assay on Hep2 cells [2] of 1710 nM. The Log10 PFU/0.2 mL after 20 ug/ml antibody, plaque reduction assay on HEp-2 cells, mean (Log10 PFU/0.2 mL) [3] was -0.42 and the Log10 PFU/0.2 mL after 20 ug/ml antibody, plaque reduction assay on HEp-2 cells, median (Log10 PFU/0.2 mL) [3] was -0.6.
